The FLAb antibody collection (doi:10.1101/2023.12.08.570889)

Target: TSLP, Q969D9
Experiment: Kd (SPR)

B1: unnamed (protein)
chain 1: QMQLVESGGGVVQPGRSLRLSCAASGFTFSTFAMHWVRQAPGKGLEWVAVIWYDGSNKHYADSVKGRFTITRDNSKNTLNLQMNSLRAEDTAVYYCARAPRYDEYWEAFDVWGQGTMVTVSS
chain 2: SYVLTQPPSVSVAPGQTARITCGGNNLGSKSVHWYQQKPGQAPVLVVYDDSDRPSWIPERFSGSNSGNTATLTISRGEAGDEADYYCQVWDSSSDHVVFGGGTKLTVL
Q: Which Kd does the source give for B1 here?
A: 0.764 µM

B2: unnamed (protein)
chain 1: QMQLVESGGGVVQPGRSLRLSCAASGFTFSTFAMHWVRQAPGKGLEWVAVIWYDGSNKHYADSVKGRFTITRDNSKNTLNLQMNSLRAEDTAVYYCARAPRYDDLYEAFDVWGQGTMVTVSS
chain 2: SYVLTQPPSVSVAPGQTARITCGGNNLGSKSVHWYQQKPGQAPVLVVYDDSDRPSWIPERFSGSNSGNTATLTISRGEAGDEADYYCQVWDSSSDHVVFGGGTKLTVL
Q: Which Kd does the source give for B2 here?
A: 0.188 µM

B3: unnamed (protein)
chain 1: QMQLVESGGGVVQPGRSLRLSCAASGFTFSTYAMHWVRQAPGKGLEWVAVIWYDGSNKHYADSVKGRFTITRDNSKNTLNLQMNSLRAEDTAVYYCARAPRYDEYYEAFDVWGQGTMVTVSS
chain 2: SYVLTQPPSVSVAPGQTARITCGGNNLGSKSVHWYQQKPGQAPVLVVYDDSDRPSWIPERFSGSNSGNTATLTISRGEAGDEADYYCQVWDSSSDHVVFGGGTKLTVL
Q: For B3, which Kd is on record?
A: 0.224 µM

B4: unnamed (protein)
chain 1: QMQLVESGGGVVQPGRSLRLSCAASGFTFSTFAMHWVRQAPGKGLEWVAVIWYDGSNKHYADSVKGRFTITRDNSKNTLNLQMNSLRAEDTAVYYCARAPRYYDYWEAFDVWGQGTMVTVSS
chain 2: SYVLTQPPSVSVAPGQTARITCGGNNLGSKSVHWYQQKPGQAPVLVVYDDSDRPSWIPERFSGSNSGNTATLTISRGEAGDEADYYCQVWDSSSDHVVFGGGTKLTVL
Q: Which Kd does the source give for B4 here?
A: 0.221 µM

B5: unnamed (protein)
chain 1: QMQLVESGGGVVQPGRSLRLSCAASGFTFSTFAMHWVRQAPGKGLEWVAVIWYDGSNKHYADSVKGRFTITRDNSKNTLNLQMNSLRAEDTAVYYCARAPRYDDRYEAFDVWGQGTMVTVSS
chain 2: SYVLTQPPSVSVAPGQTARITCGGNNLGSKSVHWYQQKPGQAPVLVVYDDSDRPSWIPERFSGSNSGNTATLTISRGEAGDEADYYCQVWDSSSDHVVFGGGTKLTVL
Q: Which Kd does the source give for B5 here?
A: 0.49 µM

B6: unnamed (protein)
chain 1: QMQLVESGGGVVQPGRSLRLSCAASGFTFSTYAMHWVRQAPGKGLEWVAVIWYDGSNKHYADSVKGRFTITRDNSKNTLNLQMNSLRAEDTAVYYCARSPRYDEYYEAFDVWGQGTMVTVSS
chain 2: SYVLTQPPSVSVAPGQTARITCGGNNLGSKSVHWYQQKPGQAPVLVVYDDSDRPSWIPERFSGSNSGNTATLTISRGEAGDEADYYCQVWDSSSDHVVFGGGTKLTVL
Q: B6 was tested. Which Kd did it give?
A: 0.219 µM

B7: unnamed (protein)
chain 1: QMQLVESGGGVVQPGRSLRLSCAASGFTFSTFAMHWVRQAPGKGLEWVAVIWYDGSNKHYADSVKGRFTITRDNSKNTLNLQMNSLRAEDTAVYYCARAPRYYYYYEAFDVWGQGTMVTVSS
chain 2: SYVLTQPPSVSVAPGQTARITCGGNNLGSKSVHWYQQKPGQAPVLVVYDDSDRPSWIPERFSGSNSGNTATLTISRGEAGDEADYYCQVWDSSSDHVVFGGGTKLTVL
Q: Which Kd does the source give for B7 here?
A: 0.208 µM

B8: unnamed (protein)
chain 1: QMQLVESGGGVVQPGRSLRLSCAASGFTFSTYAMHWVRQAPGKGLEWVAVIWYDGSNKHYADSVKGRFTITRDNSKNTLNLQMNSLRAEDTAVYYCARAPRYDEYVEAFDVWGQGTMVTVSS
chain 2: SYVLTQPPSVSVAPGQTARITCGGNNLGSKSVHWYQQKPGQAPVLVVYDDSDRPSWIPERFSGSNSGNTATLTISRGEAGDEADYYCQVWDSSSDHVVFGGGTKLTVL
Q: For B8, which Kd is on record?
A: 0.195 µM

B9: unnamed (protein)
chain 1: QMQLVESGGGVVQPGRSLRLSCAASGFTFSSFAMHWVRQAPGKGLEWVAVIWYDGSNKHYADSVKGRFTITRDNSKNTLNLQMNSLRAEDTAVYYCARAPRYDEYYEAFDVWGQGTMVTVSS
chain 2: SYVLTQPPSVSVAPGQTARITCGGNNLGSKSVHWYQQKPGQAPVLVVYDDSDRPSWIPERFSGSNSGNTATLTISRGEAGDEADYYCQVWDSSSDHVVFGGGTKLTVL
Q: B9 was tested. Which Kd did it give?
A: 0.186 µM

B10: unnamed (protein)
chain 1: QMQLVESGGGVVQPGRSLRLSCAASGFTFSTFAMHWVRQAPGKGLEWVAVIWYDGSNKHYADSVKGRFTITRDNSKNTLNLQMNSLRAEDTAVYYCARAPRYDWYLEAFDVWGQGTMVTVSS
chain 2: SYVLTQPPSVSVAPGQTARITCGGNNLGSKSVHWYQQKPGQAPVLVVYDDSDRPSWIPERFSGSNSGNTATLTISRGEAGDEADYYCQVWDSSSDHVVFGGGTKLTVL
Q: For B10, which Kd is on record?
A: 0.157 µM
